Measured values: patent US20120225828A1
Bridge positions count the residues as written; N and C are the ends. Square brackets hold non-standard residues; d marks the D form. dPhe(3-Cl) = N[C@H](Cc1cccc(Cl)c1)C(=O)O; dPhe(4-Cl) = N[C@H](Cc1ccc(Cl)cc1)C(=O)O; dPhe(4-Me) = Cc1ccc(C[C@@H](N)C(=O)O)cc1; dPhe(2-Cl) = N[C@H](Cc1ccccc1Cl)C(=O)O; dPhe(4-F) = N[C@H](Cc1ccc(F)cc1)C(=O)O; dPhe(2-F) = N[C@H](Cc1ccccc1F)C(=O)O; Nle = CCCC[C@H](N)C(=O)O; Orn = NCCC[C@H](N)C(=O)O; Dab = NCC[C@H](N)C(=O)O; Dap = NC[C@H](N)C(=O)O

Key:
[1] = target: recombinant human melanocortin-4 receptor hMCR-4 (human) (UniProt P32245); assay: competition with [I125]-NDP-α-MSH; HEK-293 hMCR-4 membrane homogenates
[2] = target: recombinant human melanocortin-1 receptor hMCR-1a (human) (UniProt Q01726); assay: competition with [I125]-NDP-α-MSH; HEK-293 hMCR-1a membrane homogenates
Chain of recombinant human melanocortin-1 receptor hMCR-1a (human) (Q01726 whole entry): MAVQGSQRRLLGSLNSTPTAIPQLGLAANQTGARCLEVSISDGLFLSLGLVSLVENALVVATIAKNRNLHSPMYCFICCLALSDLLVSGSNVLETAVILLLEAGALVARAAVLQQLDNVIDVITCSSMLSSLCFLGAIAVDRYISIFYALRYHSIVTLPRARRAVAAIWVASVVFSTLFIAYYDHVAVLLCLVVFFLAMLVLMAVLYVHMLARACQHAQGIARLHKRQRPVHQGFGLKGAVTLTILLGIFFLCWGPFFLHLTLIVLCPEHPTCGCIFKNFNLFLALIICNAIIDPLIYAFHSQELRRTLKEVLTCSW

Chain of recombinant human melanocortin-4 receptor hMCR-4 (human) (P32245 whole entry): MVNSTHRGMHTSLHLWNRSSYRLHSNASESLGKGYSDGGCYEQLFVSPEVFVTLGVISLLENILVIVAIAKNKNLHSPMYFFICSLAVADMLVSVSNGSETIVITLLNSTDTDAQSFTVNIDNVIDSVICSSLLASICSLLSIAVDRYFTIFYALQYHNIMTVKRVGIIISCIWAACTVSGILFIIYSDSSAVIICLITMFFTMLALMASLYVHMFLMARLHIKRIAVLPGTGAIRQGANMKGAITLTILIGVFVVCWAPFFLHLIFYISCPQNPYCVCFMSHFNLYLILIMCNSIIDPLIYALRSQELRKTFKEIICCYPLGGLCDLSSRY

Row | Ki [1] | Ki [2] | Substance
1 | 20 nM | – | Ac-Nle-cyclo(Glu-Arg-D-Phe-Arg-Dab)-Trp-NH2 (SEQ ID NO: 53) (peptide)
2 | 45 nM | 0.015 nM | Ac-Nle-cyclo(Glu-Orn-D-Phe-Arg-Dab)-Trp-NH2 (peptide)
3 | 10000 nM | 10000 nM | Ac-[Nle]EH[dF][Dab]-NH2 (lactam 2-5)
4 | 10000 nM | 7 nM | Ac-[Nle]EH[dF]R[Dab]-NH2 (lactam 2-6; SEQ ID NO: 47)
5 | 10000 nM | 2 nM | Ac-Nle-cyclo(Glu-His-D-Phe-Arg-Dab)-Trp-OH (peptide)
6 | 10000 nM | 35 nM | Ac-[Nle]E[Orn][dPhe(3-Cl)]R[Dab]-NH2 (lactam 2-6)
7 | 1240 nM | 2 nM | Ac-[Nle]E[Orn][dPhe(4-Cl)]R[Dab]-NH2 (lactam 2-6)
8 | 20 nM | – | Ac-Nle-cyclo(Glu-Arg-D-Phe-Arg-Dab)-Trp-NH2 (peptide)
9 | 3620 nM | 4 nM | Ac-[Nle]E[Orn][dF]R[Dab]-NH2 (lactam 2-6)
10 | 0.095 nM | 0.02 nM | Ac-Nle-cyclo(Glu-His-D-Phe-Arg-Dab)-Nal 2-NH2 (SEQ ID NO: 14) (peptide)
11 | 10000 nM | 2 nM | Ac-Nle-cyclo(Glu-Orn-D-Phe(4-OMe)-Arg-Dab)-NH2 (peptide)
12 | 10000 nM | 645 nM | Ac-[Nle]EH[dF]A[Dab]-NH2 (lactam 2-6; SEQ ID NO: 48)
13 | 45 nM | 0.015 nM | Ac-Nle-cyclo(Glu-Orn-D-Phe-Arg-Dab)-Trp-NH2 (SEQ ID NO: 58) (peptide)
14 | 98 nM | 0.45 nM | Ac-Nle-cyclo(Glu-Cit-D-Phe-Arg-Dab)-Trp-NH2 (SEQ ID NO: 54) (peptide)
15 | 358 nM | – | Ac-Nle-cyclo(Glu-His-D-Phe-Arg-Dap)-Trp-NH2 (peptide)
16 | 10000 nM | 9 nM | Ac-[Nle]EH[dF]G[Dab]W-NH2 (lactam 2-6)
17 | 10000 nM | 40 nM | Ac-Nle-cyclo(Glu-Orn-D-Phe(3,4-F)-Arg-Dab)-NH2 (peptide)
18 | 455 nM | – | Ac-Nle-cyclo(Glu-Ala-D-Phe-Arg-Dab)-Trp-NH2 (SEQ ID NO: 52) (peptide)
19 | 0.75 nM | 0.005 nM | Ac-Nle-cyclo(Glu-His-D-Phe-Arg-Dab)-Nal 1-NH2 (peptide)
20 | 7480 nM | 2 nM | Ac-[Nle]EH[dF]R[Dab]A-NH2 (lactam 2-6)
21 | 95 nM | – | Ac-Nle-cyclo(Glu-Lys-D-Phe-Arg-Dab)-Trp-NH2 (peptide)
22 | 680 nM | 0.03 nM | Ac-Nle-cyclo(Dap-His-D-Phe-Arg-Dap)-Trp-NH2 with bridge C(═O)-(CH2)2-C(═O) (peptide)
23 | 535 nM | – | Ac-D-Phe-cyclo(Glu-His-D-Phe-Arg-Dab)-Trp-NH2 (peptide)
24 | 295 nM | – | Ac-Nle-cyclo(Glu-His-D-Phe-Arg-Orn)-Trp-NH2 (peptide)

Row | Ki [1] | Ki [2] | Substance
25 | 98 nM | 0.45 nM | Ac-Nle-cyclo(Glu-Cit-D-Phe-Arg-Dab)-Trp-NH2 (peptide)
26 | 98 nM | 0.05 nM | Ac-Nle-cyclo(Glu-Dab-D-Phe-Arg-Dab)-Trp-NH2 (peptide)
27 | 3 nM | 0.01 nM | Ac-Nle-cyclo(Glu-His-D-Phe-Arg-Dab)-Nal 2-NH2 (peptide)
28 | 10000 nM | 7 nM | Ac-[Nle]EH[dF]R[Dab]-NH2 (lactam 2-6)
29 | 10000 nM | 645 nM | Ac-[Nle]EH[dF]A[Dab]-NH2 (lactam 2-6)
30 | 33 nM | 0.55 nM | Ac-Nle-cyclo(Glu-His-D-Phe-Arg-Dab)-D-Trp-NH2 (peptide)
31 | 10000 nM | 18 nM | Ac-[Nle]E[Orn][dPhe(2-F)]R[Dab]-NH2 (lactam 2-6)
32 | 110 nM | – | Ac-Nle-cyclo(Glu-His-D-Phe-Arg-Dab)-Trp-NH2 (peptide)
33 | 10000 nM | 20 nM | Ac-[Nle]E[Orn][dPhe(4-F)]R[Dab]-NH2 (lactam 2-6)
34 | 380 nM | 0.015 nM | Ac-Nle-cyclo(Dab-His-D-Phe-Arg-Dab)-Trp-NH2 with bridge C(═O)-(CH2)2-C(═O) (peptide)
35 | 325 nM | 0.025 nM | Ac-Nle-cyclo(Dab-His-D-Phe-Arg-Dap)-Trp-NH2 with bridge C(═O)-(CH2)2-C(═O) (peptide)
36 | 98 nM | 0.05 nM | Ac-Nle-cyclo(Glu-Dab-D-Phe-Arg-Dab)-Trp-NH2 (SEQ ID NO: 57) (peptide)
37 | 10000 nM | – | Ac-[Nle]EH[dF]A[Dab]W-NH2 (lactam 2-6)
38 | 1320 nM | 2 nM | Ac-[Nle]DH[dF]R[Dap]W-NH2 (lactam 2-6)
39 | 95 nM | – | Ac-Nle-cyclo(Glu-Lys-D-Phe-Arg-Dab)-Trp-NH2 (SEQ ID NO: 56) (peptide)
40 | 455 nM | – | Ac-Nle-cyclo(Glu-Ala-D-Phe-Arg-Dab)-Trp-NH2 (peptide)
41 | 10000 nM | 2250 nM | Ac-Nle-cyclo(Glu-Pro-D-Phe-Arg-Dab)-NH2 (peptide)
42 | 10000 nM | 3 nM | Ac-[Nle]E[Orn][dPhe(4-Me)]R[Dab]-NH2 (lactam 2-6)
43 | 860 nM | 0.065 nM | Ac-Nle-cyclo(Dap-His-D-Phe-Arg-Dab)-Trp-NH2 with bridge C(═O)-(CH2)2-C(═O) (peptide)
44 | 7380 nM | 2 nM | Ac-[Nle]EH[dF]R[Dab]K-NH2 (lactam 2-6)
45 | 4700 nM | 1 nM | Ac-Nle-cyclo(Glu-His-D-Phe-Arg-Dap)-Trp-OH (peptide)
46 | 185 nM | 3 nM | Ac-[Nle]EP[dF]R[Dab]W-NH2 (lactam 2-6)
47 | 10000 nM | 30 nM | Ac-[Nle]E[Orn][dPhe(2-Cl)]R[Dab]-NH2 (lactam 2-6)
48 | 2 nM | 0.1 nM | Ac-Nle-cyclo(Glu-His-D-Phe-Arg-Dab)-D-Nal 1-NH2 (peptide)
